The target of the assay is His-tagged recombinant human LDLR (extracellular domain, hLDLR-ECD) (human) (UniProt P01130). Put plainly: SPR. (SPR reads the build-up and loss of mass on a sensor chip optically.)

In article doi:10.1101/2023.02.03.526778 one finds Kd data, which are given here for one substance.

For orientation: Kd means the concentration at which binding is half-saturated.

Chain of UniProt P01130 (P01130 22-788): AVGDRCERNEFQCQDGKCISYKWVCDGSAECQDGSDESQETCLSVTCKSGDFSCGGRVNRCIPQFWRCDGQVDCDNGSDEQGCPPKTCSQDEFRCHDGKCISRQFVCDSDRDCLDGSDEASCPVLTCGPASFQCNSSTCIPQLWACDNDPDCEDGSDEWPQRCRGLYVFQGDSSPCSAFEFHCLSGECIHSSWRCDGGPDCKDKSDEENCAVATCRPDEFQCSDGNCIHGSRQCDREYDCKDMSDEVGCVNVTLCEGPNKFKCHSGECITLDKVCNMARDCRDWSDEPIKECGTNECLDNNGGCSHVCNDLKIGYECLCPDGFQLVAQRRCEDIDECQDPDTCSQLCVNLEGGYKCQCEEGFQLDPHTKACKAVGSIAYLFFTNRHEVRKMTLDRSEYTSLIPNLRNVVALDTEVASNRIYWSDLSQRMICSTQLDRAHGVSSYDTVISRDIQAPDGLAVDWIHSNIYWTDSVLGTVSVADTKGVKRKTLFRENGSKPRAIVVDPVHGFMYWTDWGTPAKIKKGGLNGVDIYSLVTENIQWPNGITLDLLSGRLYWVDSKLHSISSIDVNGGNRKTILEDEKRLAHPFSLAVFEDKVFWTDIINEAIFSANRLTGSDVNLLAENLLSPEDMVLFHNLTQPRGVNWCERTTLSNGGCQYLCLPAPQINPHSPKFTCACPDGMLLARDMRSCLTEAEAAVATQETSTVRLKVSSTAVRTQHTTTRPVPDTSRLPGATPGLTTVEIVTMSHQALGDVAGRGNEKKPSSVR

“VH4127 peptide (cyclo[(D)-Cys-Met-Thz-Arg-Leu-Arg-Gly-Pen])”: the Kd was found to be 40.1 nM.
